Source: patent US8871909B2, “Antibodies inhibiting c-Met dimerization and uses thereof” (Pierre Fabre Medicament, priority 2007, dated 2014)

Legend:
Type in all cases: cell-based
c-Met = target: T1, c-Met (Homo sapiens, UniProt P08581); assay: Phospho c-Met ELISA assay on A549 cells; conditions: purified Mabs; for IC50, c-Met phosphorylation: 0.0015 to 30 μg/ml (0.01-200 nM); for agonist effect on c-Met phosphorylation, added alone / antagonist effect on c-Met phosphorylation in presence of HGF: A549, 30 μg/ml (200 nM), Example 18
T1 construct: endogenous in cells; host or cells: A549
T1 sequence (P08581 25-1390): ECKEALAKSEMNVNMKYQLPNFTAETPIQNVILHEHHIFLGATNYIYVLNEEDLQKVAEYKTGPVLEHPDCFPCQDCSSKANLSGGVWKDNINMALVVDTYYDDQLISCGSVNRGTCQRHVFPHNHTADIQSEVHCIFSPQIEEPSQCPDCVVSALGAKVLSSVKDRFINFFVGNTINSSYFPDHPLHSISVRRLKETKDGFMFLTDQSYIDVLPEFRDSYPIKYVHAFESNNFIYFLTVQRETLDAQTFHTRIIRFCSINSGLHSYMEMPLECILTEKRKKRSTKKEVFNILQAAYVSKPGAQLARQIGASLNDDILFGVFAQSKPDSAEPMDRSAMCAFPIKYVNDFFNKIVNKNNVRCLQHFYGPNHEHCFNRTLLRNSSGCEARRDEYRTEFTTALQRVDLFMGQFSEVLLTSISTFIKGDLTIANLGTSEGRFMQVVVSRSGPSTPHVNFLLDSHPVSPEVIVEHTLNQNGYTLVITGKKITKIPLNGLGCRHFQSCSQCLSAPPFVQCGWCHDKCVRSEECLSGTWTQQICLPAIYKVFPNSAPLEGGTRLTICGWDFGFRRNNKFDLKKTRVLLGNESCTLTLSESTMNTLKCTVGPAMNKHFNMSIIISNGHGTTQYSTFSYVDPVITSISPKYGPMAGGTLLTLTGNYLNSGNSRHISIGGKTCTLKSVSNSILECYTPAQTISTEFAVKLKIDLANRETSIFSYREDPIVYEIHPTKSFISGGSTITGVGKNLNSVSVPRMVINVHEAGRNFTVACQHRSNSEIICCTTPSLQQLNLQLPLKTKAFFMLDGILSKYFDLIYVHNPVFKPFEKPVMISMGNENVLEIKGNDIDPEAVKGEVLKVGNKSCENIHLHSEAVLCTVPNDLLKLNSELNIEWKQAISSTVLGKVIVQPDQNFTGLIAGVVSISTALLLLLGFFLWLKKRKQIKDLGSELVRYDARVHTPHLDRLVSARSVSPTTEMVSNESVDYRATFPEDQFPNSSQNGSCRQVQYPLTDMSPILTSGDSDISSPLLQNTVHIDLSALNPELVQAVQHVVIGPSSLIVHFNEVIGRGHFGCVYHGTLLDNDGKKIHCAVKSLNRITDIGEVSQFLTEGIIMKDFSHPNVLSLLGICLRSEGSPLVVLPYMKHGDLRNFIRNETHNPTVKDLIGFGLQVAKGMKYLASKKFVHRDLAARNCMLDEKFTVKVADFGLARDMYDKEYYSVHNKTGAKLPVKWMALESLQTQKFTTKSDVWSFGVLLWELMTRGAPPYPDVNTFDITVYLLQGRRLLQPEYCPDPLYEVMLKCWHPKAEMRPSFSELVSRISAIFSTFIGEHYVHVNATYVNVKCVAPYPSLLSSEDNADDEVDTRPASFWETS
Experimental: To determine the activity of anti-c-Met antibodies on c-Met phosphorylation a phospho c-Met ELISA assay was set-up. Briefly 500 000 A549 cells were seeded in each well of 6-well plates in F12K medium+10% FCS. 16 hours before HGF addition (100 ng/ml), cells were starved and each antibody to be tested was added at a final concentration of 30 μg/ml 15 minutes before ligand stimulation. 15 minutes after HGF addition, cold lysis buffer was added, cells were scraped and cell lysates collected and centrifuged at 13 000 rpm for 10 min at 4° C. Supernatants were quantified with a BCA kit (Pierce) and stored at −20° C. For ELISA assay, a goat anti-c-Met antibody (R&D ref. AF276) was used as a capture antibody (coating overnight at 4° C.) and after a saturation step (1 h at RT) with a TBS-BSA 5% buffer, […] of protein from the different cell lysates was added to each well of the 96-well plate. After a 90 minute-incubation time at RT, plates were washed four times and an anti-phospho-c-Met antibody (Rabbit anti-pY1230-1234-1235 c-Met) was added. After an additional 1 hour incubation time and 4 washes an anti-rabbit-HRP (Biosource) was added for 1 hour at RT and then Luminol substrate was added before evaluation the luminescence with a Mithras device. […] As described in the various examples presented in this patent, this weak basal effect has no consequences on the activity of antibodies in other in vitro and in vivo tests.
In example 3, the effect of anti-c-Met Mabs on phosphorylation was assessed with dosed supernatants from each hybridoma to be evaluated. The test has been performed again with purified 11E1 and 224G11 Mabs that have been evaluated either at a final concentration of 30 μg/ml (200 nM) or at a dose range from 0.0015 to 30 μg/ml (0.01-200 nM) in order to determine the IC50 of each antibody. The protocol used is the same as the one described in example 3.

SK-HEP-1 cells [1] = assay: Scatter assay; conditions: SK-HEP-1, antibody 10 μg/ml; for inhibitory effect on cell scattering in presence of HGF: HGF 100 ng/ml; for agonist effect on cell scattering, alone: no HGF
Experimental: SK-HEP-1 cells were seeded at low density (1·10^4 cells/well) in a 24-well plate in DMEM with 10% FCS and grown for 24 hours before addition, at the same time, of HGF (100 ng/ml) and antibodies to be tested (10 μg/ml). After 72 hours incubation, colonies were fixed and stained with 0.2% crystal violet in methanol and assessed for scattering visually. Each tested condition was tested as a triplicate and 3 independent experiments were performed.

A549 cells = assay: Matrigel invasion assay with A549 cells; conditions: A549, Mab 10 μg/ml, basal (no HGF)
Experimental: To evaluate the inhibiting effect of the anti-c-Met antibodies on the invasion process, A549 cells were plated in the upper chamber of BD BioCoat™ Matrigel™ invasion chambers (6.5 mm diameter wells with 8-μm pre size polycarbonate membranes). A459 cells were starved 24 hours before performing the invasion assay. Then 500 000 A549 cells were plated in chemotaxis buffer (DMEM medium, 0.1% BSA, 12 mM Hepes) in the upper well of each chamber, upon the Matrigel coating either with or without the antibody to be tested (final Mab concentration 10 μg/ml). After 1 hour incubation of the plates at 37° C. with 5% CO2, the lower chambers were filled with either growth medium containing 400 ng/ml of rhHGF or with growth medium alone. The chambers were incubated for 48 additional hours at 37° C. with 5% CO2. At the end of this incubation time, cells that remained on upper surface of the filter were gently removed with a cotton swab, cells that migrated to the lower surface of the filter were lysed, stained with CyQuant GR dye buffer (Invitrogen) and counted using a fluorescence reader Berthold Mithras LB940. All conditions were tested as triplicates.

SK-HEP-1 cells [2] = assay: Three-dimensional tubulogenesis assay; conditions: SK-HEP-1, antibody 10 μg/ml; for inhibitory effect on tube formation in presence of HGF: HGF 100 ng/ml; for agonist effect on tube formation, alone: no HGF
Experimental: SK-HEP-1 cells were seeded at 1·10^4 cells/well in a 24-well plate in DMEM with 10% FCS/Matrigel (50/50) and incubated for 30 min before addition, at the same time, of HGF (100 ng/ml) and antibodies to be tested (10 μg/ml). After 7 days incubation, cells were assessed for tube formation visually. Each tested condition was tested as a triplicate and 3 independent experiments were performed.

BxPC3 cells = assay: In vitro inhibition of BxPC3 proliferation ([3H]thymidine incorporation); conditions: BxPC3, in absence of ligand, antibody alone
Experimental: For that purpose 50 000 BxPC3 cells were plated in 96 well plates in RPMI medium, 2 mM L. Glutamine, without SVF. […] After 3 days, cells were pulsed with 0.5 μCi of [^3H]thymidine for 16 hours. The magnitude of [^3H]thymidine incorporated into trichloroacetic acid-insoluble DNA was quantified by liquid scintillation counting. Results were expressed as raw data to really evaluate the intrinsic agonistic effect of each Mab (FIGS. 2A and 2B).

HUVEC [3] = assay: HUVEC tube formation; conditions: HGF 50 ng/ml
Experimental: For evaluation of HUVEC tube formation, 25000 cells incubated 30 min with antibodies to be tested were plated in 48-well plates coated with matrigel. Then HGF 50 ng/ml was added and plates were incubated at 37° C. Medium was then harvested and […] CMFDA was added for 15 min before microscopic observation.

HUVEC [4] = assay: HUVEC proliferation ([3H]thymidine); conditions: HGF 20 ng/ml, 0.15 to 40 μg/ml
Experimental: For proliferation experiments, 7500 HUVEC were plated in each well of a 96 well plate previously coated with laminin. Cells were grown 24 hours of EMB-2 assay medium supplemented with 0.5% FBS and heparin. Then, MAbs to be tested (0.15 to 40 μg/ml) were added for 1 h before addition of 20 ng/ml of HGF. After 24 additional hours, cells were pulsed with 0.5 μCi of [^3H] Thymidine. The magnitude of [^3H] Thymidine incorporated was quantified by liquid scintillation counting. In This experiment the 9G4 MAb is an irrelevant antibody used as an IgG1 isotype control.

Molecule | IC50, c-Met phosphorylation (c-Met) | agonist effect on c-Met phosphorylation, added alone (c-Met) | antagonist effect on c-Met phosphorylation in presence of HGF (c-Met) | inhibitory effect on cell scattering in presence of HGF (SK-HEP-1 cells [1]) | agonist effect on cell scattering, alone (SK-HEP-1 cells [1]) | agonist effect on invasion, added alone (A549 cells) | inhibitory effect on tube formation in presence of HGF (SK-HEP-1 cells [2]) | agonist effect on tube formation, alone (SK-HEP-1 cells [2]) | agonist activity on cell proliferation (BxPC3 cells) | effect on HGF-induced tube formation (HUVEC [3]) | inhibition of HGF-induced HUVEC proliferation (HUVEC [4])
224G11: murine anti-c-Met monoclonal antibody, IgG1 kappa; heavy chain SEQ ID No. 18, light chain SEQ ID No. 21 (antibody, V domains shown, mus musculus) VH: EVQLQQSGPELVKPGASVKISCKTSGYIFTAYTMHWVRQSLGESLDWIGGIKPNNGLANYNQKFKGKATLTVDKSSSTAYMDLRSLTSEDSAVYYCARSEITTEFDYWGQGTALTVSS VL: DIVLTQSPASLAVSLGQRATISCRASESVDSYANSFMHWYQQKPGQPPKLLIYRASNLESGIPARFSGSGSRTDFTLTINPVEADDVATYYCQQSKEDPLTFGSGTKLEMK | nanomolar | no agonist effect | 75% | very significant inhibitory effect | No agonistic effect | No agonist effect | partial but significant inhibition | No agonistic effect | without any agonist activity | inhibit dramatically | dramatic dose dependent inhibition
223C4: murine anti-c-Met monoclonal antibody, IgG1 kappa; heavy chain SEQ ID No. 20, light chain SEQ ID No. 23 (antibody, V domains shown, mus musculus) VH: EVLLQQSGPELVKPGASVKIPCKASGYTFTDYNMDWVKQSHGMSLEWIGDINPNNGGTIFNQKFKGKATLTVDKSSSTAYMELRSLTSEDTAVYYCARGRYVGYYYAMDYWGQGTSVTVSS VL: DIQMTQSPASLSVSVGETVTITCRASENIYSNLAWYQQKQGKSPQLLVYAATNLVDGVPSRFSGSGSGTQYSLKINSLQSEDFGSYYCQHFWGPPYTFGGGTKLEIK |  |  |  |  |  | No agonist effect | full inhibitory effect | No agonistic effect | without any agonist activity |  | 
11E1: murine anti-c-Met monoclonal antibody, IgG1 kappa; heavy chain SEQ ID No. 62, light chain SEQ ID No. 63 (antibody, V domains shown, mus musculus) VH: QVQLQQSGAELAKPGASVKMSCKASGYTFTSYWMNWVKQRPGQGLEWIGYINPTTGSTDYNQKLKDKATLTADKSSNTAYMQLSSLTSEDSAVYYCAIGGYGSWFAYWGQGTLVTVSA VL: QIVLTQSPAIMSASPGEKVTLTCSASSSVSSTYLYWYQQKPGSSPKLWIYTTSILASGVPARFSGSGSGTSYSLTISSMETEDAASYFCHQWSSYPFTFGSGTKLDIK | nanomolar | no agonist effect | 87% | very significant inhibitory effect | No agonistic effect | No agonist effect | full inhibitory effect | No agonistic effect | without any agonist activity | inhibit dramatically | dramatic dose dependent inhibition
